Source: patent publication WO2018092907A1 (dated 2018)
Residue numbers refer to the chain shown, from its start.

T1: TNFR1 on transiently transfected cells (UniProt P19438 30-455, limits assumed)
T1 construct: whole, on cells
T1 sequence (looked up): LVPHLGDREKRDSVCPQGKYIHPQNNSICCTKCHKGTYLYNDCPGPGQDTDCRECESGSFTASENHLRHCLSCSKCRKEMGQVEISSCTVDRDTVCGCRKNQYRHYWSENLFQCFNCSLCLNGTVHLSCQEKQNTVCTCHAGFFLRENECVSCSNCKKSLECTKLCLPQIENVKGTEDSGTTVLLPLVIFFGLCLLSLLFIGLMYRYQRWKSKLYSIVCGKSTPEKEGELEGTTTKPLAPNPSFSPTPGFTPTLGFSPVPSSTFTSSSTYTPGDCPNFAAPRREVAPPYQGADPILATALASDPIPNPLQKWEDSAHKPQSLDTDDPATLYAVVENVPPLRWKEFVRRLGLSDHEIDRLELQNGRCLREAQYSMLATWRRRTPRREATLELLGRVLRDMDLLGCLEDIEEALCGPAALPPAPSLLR

T2: human TNFR2 expressed on the cell membrane (membrane-type TNFR2) (human, UniProt P20333 23-461)
T2 construct: also called TNFRSF1B; cell membrane type TNFR2
T2 sequence: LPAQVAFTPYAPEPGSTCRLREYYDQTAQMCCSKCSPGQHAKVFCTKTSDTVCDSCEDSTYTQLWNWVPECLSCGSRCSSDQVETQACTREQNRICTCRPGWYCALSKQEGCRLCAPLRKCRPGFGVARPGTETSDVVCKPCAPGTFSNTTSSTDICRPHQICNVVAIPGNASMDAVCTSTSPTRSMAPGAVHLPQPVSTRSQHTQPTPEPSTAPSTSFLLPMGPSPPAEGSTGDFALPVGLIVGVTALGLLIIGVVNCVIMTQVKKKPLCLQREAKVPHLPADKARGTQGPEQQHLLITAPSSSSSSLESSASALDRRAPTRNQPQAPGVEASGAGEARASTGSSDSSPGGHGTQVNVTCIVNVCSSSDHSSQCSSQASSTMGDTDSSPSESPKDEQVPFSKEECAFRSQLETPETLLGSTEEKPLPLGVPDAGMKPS

B1: TR109 (anti-TNFR2 antagonist antibody, mouse monoclonal) (antibody, V domains shown)
VH: QVQLKESGPGLVAPSQSLSITCTVSGFSLTVYGVNWVRQPPGKGLEWLGMIWGDGSTAYNSALKSRLTITKDNSKTQVFLKMNSLQTDDTARYYCARDGRRYALDYWGQGTSVTVSS
VL: DIVLTQSPTSLAVSLGQRATISCRASESVDSYGDSFLHWYQQKPGQPPILLIYRASNLDSGIPARFSGSGSRTDFTLTINPVEADDVATYYCQQSNEDPYTFGGGTKLEINR
notes: also called Ep9: TR109; Ep7
B2: humanized TR109 antibody (TR109HUVH1 + TR109HUVL1) (antibody, V domains shown)
VH: QVQLQESGPGLVKPSGTLSLTCAVSGGSISVYGVNWVRQPPGKGLEWIGMIWGDGSTAYNSALKSRVTISVDKSKNQFSLKLSSVTAADTAVYYCARDGRRYALDYWGQGTLVTVSS
VL: DIVMTQSPDSLAVSLGERATINCRASESVDSYGDSFLHWYQQKPGQPPKLLIYRASNLDSGVPDRFSGSGSGTDFTLTISSLQAEDVAVYYCQQSNEDPYTFGQGTKLEIK
notes: also called one of the four humanized TR109 antibodies
B3: humanized TR109 antibody (TR109HUVH1 + TR109HUVL2) (antibody, V domains shown)
VH: B2 VH
VL: EIVLTQSPATLSLSPGERATLSCRASESVDSYGDSFLHWYQQKPGQAPRLLIYRASNLDSGIPARFSGSGSGTDFTLTISSLEPEDFAVYYCQQSNEDPYTFGQGTKLEIK
notes: as for B2
B4: humanized TR109 antibody (TR109HUVH2 + TR109HUVL2) (antibody, V domains shown)
VH: B2 VH with G16E, A23T, G27Y, V37I, K73T
VL: B3 VL
notes: as for B2
B5: humanized TR109 antibody (TR109HUVH2 + TR109HUVL1) (antibody, V domains shown)
VH: B2 VH with G16E, A23T, G27Y, V37I, K73T
VL: B2 VL
notes: as for B2
B6: humanized TR92 antibody (TR92HUVH1 + TR92HUVL1) (antibody, V domains shown)
VH: QVQLVQSGAEVKKPGASVKVSCKASGYTFTESIIHWVRQAPGQGLEWMGWFYPGSDNINYNEKFKDRVTMTRDTSISTAYMELSRLRSDDTAVYYCARHEGPYVYFDYWGQGTTVTVSS
VL: DIVMTQSPDSLAVSLGERATINCKASQDVSTAVAWYQQKPGQPPKLLIYWTSTRHTGVPDRFSGSGSGTDFTLTISSLQAEDVAVYYCQHHYSTPYTFGQGTKLEIK
notes: also called one of the four humanized TR92 antibodies
B7: humanized TR92 antibody (TR92HUVH1 + TR92HUVL2) (antibody, V domains shown)
VH: B6 VH
VL: DIQMTQSPSSLSASVGDRVTITCKASQDVSTAVAWYQQKPGKAPKLLIYWTSTRHTGVPSRFSGSGSGTDFTLTISSLQPEDFATYYCQHHYSTPYTFGQGTKLEIK
notes: as for B6
B8: humanized TR92 antibody (TR92HUVH2 + TR92HUVL1) (antibody, V domains shown)
VH: B6 VH with P41T, D73N, R85S, D89E
VL: B6 VL
notes: as for B6
B9: humanized TR92 antibody (TR92HUVH2 + TR92HUVL2) (antibody, V domains shown)
VH: B6 VH with P41T, D73N, R85S, D89E
VL: B7 VL
notes: as for B6

biological target: T1, TNFR1 on transiently transfected cells; experiment: flow cytometry on transiently transfected cells

Row | Binder | binding result
1 | B1 | no binding

biological target: T2, human TNFR2 expressed on the cell …; experiment: flow cytometry on cells with transient expression of TNFR2 against untreated cells

Row | Binder | binding result
2 | B2 | binds
3 | B3 | binds
4 | B4 | binds
5 | B5 | binds
6 | B6 | binds
7 | B7 | binds
8 | B8 | binds
9 | B9 | binds
